Article PMC12775570

Experiments:
[1] = target: Recombinant human MET extracellular domain (Homo sapiens) (UniProt P08581); assay: high-speed atomic force microscopy
[2] = target: His-tagged recombinant human EGFR extracellular domain (Homo sapiens) (UniProt P00533); assay: high-speed atomic force microscopy

percent of the observation period bound [1]: 87%
percent of the observation period with both EGFR and MET bound to amivantamab [1]: 78%
percent of the observation period with both EGFR and MET bound to amivantamab [2]: 78%
Substance: Amivantamab (bispecific antibody)
